Experimental data as given in patent US20230322924A1 (Janssen / Centocor, published 2023).

B1: PS3B60 (bispecific antibody, human IgG4 S228P, kappa, F234A L235A)
heavy: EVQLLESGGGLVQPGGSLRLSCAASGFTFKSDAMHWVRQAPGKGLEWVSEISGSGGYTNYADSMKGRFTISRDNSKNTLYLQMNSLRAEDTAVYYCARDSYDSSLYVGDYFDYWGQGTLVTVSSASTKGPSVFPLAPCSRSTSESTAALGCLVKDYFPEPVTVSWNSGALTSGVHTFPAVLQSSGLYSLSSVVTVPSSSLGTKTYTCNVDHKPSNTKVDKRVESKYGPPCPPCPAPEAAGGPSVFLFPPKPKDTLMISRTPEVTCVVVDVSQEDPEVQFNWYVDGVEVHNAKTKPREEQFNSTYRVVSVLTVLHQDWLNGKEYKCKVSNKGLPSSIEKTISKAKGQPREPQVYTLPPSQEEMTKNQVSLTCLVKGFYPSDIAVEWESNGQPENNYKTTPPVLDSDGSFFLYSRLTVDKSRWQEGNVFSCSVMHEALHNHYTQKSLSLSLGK
light: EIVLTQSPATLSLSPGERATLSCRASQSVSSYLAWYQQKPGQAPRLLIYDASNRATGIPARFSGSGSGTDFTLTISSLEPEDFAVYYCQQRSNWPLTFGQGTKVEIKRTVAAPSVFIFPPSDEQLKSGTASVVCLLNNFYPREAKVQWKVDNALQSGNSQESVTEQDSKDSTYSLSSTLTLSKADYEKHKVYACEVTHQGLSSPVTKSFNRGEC
VH: EVQLVESGGGLVQPGGSLRLSCAASGFTFNTYAMNWVRQAPGKGLEWVARIRSKYNNYATYYAASVKGRFTISRDDSKNSLYLQMNSLKTEDTAVYYCARHGNFGNSYVSWFAYWGQGTLVTVSS
VL: QTVVTQEPSLTVSPGGTVTLTCRSSTGAVTTSNYANWVQQKPGQAPRGLIGGTNKRAPGTPARFSGSLLGGKAALTLSGVQPEDEAEYYCALWYSNLWVFGGGTKLTVL
notes: IgG4 PAA; CD3 arm with F405L, R409K; also called PSMB344 x CD3B219
B2: PS3B63 (bispecific antibody, human IgG4 S228P, kappa, F234A L235A)
heavy: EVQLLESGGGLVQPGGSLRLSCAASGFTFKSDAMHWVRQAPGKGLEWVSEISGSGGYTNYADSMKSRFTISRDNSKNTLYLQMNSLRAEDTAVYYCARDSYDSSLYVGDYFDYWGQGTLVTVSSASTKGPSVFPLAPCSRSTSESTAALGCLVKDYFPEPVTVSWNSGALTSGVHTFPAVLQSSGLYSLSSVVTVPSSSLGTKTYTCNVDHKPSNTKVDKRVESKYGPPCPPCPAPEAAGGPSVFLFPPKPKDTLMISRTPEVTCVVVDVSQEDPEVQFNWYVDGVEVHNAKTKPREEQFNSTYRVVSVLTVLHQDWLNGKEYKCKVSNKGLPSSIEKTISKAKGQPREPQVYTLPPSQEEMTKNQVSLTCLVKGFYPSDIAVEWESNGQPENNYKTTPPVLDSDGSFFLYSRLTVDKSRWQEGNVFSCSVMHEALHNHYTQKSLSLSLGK
light: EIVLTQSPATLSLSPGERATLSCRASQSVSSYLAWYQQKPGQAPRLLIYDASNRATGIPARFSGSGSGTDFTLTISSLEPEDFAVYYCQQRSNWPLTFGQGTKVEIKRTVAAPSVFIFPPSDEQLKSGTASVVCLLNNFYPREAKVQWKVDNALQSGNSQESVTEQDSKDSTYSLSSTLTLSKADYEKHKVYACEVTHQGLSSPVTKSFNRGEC
VH: EVQLVESGGGLVQPGGSLRLSCAASGFTFNTYAMNWVRQAPGKGLEWVARIRSKYNNYATYYAASVKGRFTISRDDSKNSLYLQMNSLKTEDTAVYYCARHGNFGNSYVSWFAYWGQGTLVTVSS
VL: QTVVTQEPSLTVSPGGTVTLTCRSSTGAVTTSNYANWVQQKPGQAPRGLIGGTNKRAPGTPARFSGSLLGGKAALTLSGVQPEDEAEYYCALWYSNLWVFGGGTKLTVL
notes: IgG4 PAA; CD3 arm with F405L, R409K; also called PSMB347 x CD3B219
B3: PS3B62 (bispecific antibody, human IgG4 S228P, kappa, F234A L235A)
heavy: not shown
light: not shown
VH: EVQLVESGGGLVQPGGSLRLSCAASGFTFNTYAMNWVRQAPGKGLEWVARIRSKYNNYATYYAASVKGRFTISRDDSKNSLYLQMNSLKTEDTAVYYCARHGNFGNSYVSWFAYWGQGTLVTVSS
VL: QTVVTQEPSLTVSPGGTVTLTCRSSTGAVTTSNYANWVQQKPGQAPRGLIGGTNKRAPGTPARFSGSLLGGKAALTLSGVQPEDEAEYYCALWYSNLWVFGGGTKLTVL
notes: IgG4 PAA; CD3 arm with F405L, R409K; also called PSMB346 x CD3B219
B4: PS3B72 (bispecific antibody, human IgG4 S228P, kappa, F234A L235A)
heavy: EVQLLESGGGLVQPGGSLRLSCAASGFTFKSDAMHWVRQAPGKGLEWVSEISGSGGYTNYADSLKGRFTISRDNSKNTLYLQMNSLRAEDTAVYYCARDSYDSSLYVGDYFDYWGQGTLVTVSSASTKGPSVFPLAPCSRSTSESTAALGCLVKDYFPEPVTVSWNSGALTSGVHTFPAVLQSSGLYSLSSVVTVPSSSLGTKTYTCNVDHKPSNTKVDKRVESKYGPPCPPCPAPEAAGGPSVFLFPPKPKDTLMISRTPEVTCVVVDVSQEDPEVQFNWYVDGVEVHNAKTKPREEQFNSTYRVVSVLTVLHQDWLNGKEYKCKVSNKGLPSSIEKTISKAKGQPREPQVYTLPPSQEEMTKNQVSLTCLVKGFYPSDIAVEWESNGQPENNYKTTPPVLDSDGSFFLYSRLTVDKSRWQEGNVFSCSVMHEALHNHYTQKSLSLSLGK
light: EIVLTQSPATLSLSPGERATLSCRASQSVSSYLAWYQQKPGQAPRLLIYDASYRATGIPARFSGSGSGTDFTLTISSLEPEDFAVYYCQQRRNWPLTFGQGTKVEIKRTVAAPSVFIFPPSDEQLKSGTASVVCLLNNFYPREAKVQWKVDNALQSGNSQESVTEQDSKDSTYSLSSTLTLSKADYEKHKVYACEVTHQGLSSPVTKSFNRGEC
VH: EVQLVESGGGLVQPGGSLRLSCAASGFTFNTYAMNWVRQAPGKGLEWVARIRSKYNNYATYYAASVKGRFTISRDDSKNSLYLQMNSLKTEDTAVYYCARHGNFGNSYVSWFAYWGQGTLVTVSS
VL: QTVVTQEPSLTVSPGGTVTLTCRSSTGAVTTSNYANWVQQKPGQAPRGLIGGTNKRAPGTPARFSGSLLGGKAALTLSGVQPEDEAEYYCALWYSNLWVFGGGTKLTVL
notes: IgG4 PAA; CD3 arm with F405L, R409K; also called PSMB360 x CD3B219
B5: PS3B70 (bispecific antibody, human IgG4 S228P, kappa, F234A L235A)
heavy: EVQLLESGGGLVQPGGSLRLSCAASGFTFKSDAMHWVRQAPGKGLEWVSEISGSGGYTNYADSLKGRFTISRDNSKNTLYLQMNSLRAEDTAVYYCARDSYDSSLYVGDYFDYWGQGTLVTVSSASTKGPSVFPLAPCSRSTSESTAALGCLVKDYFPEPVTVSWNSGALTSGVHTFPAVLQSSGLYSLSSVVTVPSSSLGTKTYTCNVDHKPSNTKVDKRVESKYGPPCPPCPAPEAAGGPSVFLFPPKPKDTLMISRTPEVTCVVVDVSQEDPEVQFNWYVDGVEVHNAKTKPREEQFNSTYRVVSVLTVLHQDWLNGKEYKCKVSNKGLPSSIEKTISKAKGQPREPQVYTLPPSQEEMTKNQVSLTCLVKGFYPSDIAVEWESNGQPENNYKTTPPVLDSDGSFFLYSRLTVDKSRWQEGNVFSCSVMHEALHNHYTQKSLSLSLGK
light: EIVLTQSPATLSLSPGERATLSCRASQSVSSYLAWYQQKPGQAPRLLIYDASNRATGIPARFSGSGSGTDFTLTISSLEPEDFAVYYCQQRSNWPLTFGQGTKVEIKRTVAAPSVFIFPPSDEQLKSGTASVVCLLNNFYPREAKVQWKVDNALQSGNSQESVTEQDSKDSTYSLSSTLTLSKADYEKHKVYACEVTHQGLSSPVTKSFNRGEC
VH: EVQLVESGGGLVQPGGSLRLSCAASGFTFNTYAMNWVRQAPGKGLEWVARIRSKYNNYATYYAASVKGRFTISRDDSKNSLYLQMNSLKTEDTAVYYCARHGNFGNSYVSWFAYWGQGTLVTVSS
VL: QTVVTQEPSLTVSPGGTVTLTCRSSTGAVTTSNYANWVQQKPGQAPRGLIGGTNKRAPGTPARFSGSLLGGKAALTLSGVQPEDEAEYYCALWYSNLWVFGGGTKLTVL
notes: IgG4 PAA; CD3 arm with F405L, R409K; also called PSMB358 x CD3B219
B6: PS3B71 (bispecific antibody, human IgG4 S228P, kappa, F234A L235A)
heavy: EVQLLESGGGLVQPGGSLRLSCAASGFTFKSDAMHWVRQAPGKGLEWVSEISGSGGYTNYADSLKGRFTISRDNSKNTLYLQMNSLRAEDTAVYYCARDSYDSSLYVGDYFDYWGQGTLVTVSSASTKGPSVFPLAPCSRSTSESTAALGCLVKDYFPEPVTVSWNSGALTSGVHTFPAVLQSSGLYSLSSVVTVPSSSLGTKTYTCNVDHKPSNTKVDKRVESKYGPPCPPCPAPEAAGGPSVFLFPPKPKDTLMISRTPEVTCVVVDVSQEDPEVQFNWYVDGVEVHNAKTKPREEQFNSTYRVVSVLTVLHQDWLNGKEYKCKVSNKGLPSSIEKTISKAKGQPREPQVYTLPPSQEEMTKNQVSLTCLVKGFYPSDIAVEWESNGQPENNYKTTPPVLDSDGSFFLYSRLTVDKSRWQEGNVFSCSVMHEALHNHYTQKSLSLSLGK
light: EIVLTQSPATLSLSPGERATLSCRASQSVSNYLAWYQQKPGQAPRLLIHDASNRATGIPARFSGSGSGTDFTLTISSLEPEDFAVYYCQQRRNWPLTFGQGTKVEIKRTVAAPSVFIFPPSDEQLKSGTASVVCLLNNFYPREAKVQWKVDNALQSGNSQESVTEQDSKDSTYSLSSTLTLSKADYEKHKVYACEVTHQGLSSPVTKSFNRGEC
VH: EVQLVESGGGLVQPGGSLRLSCAASGFTFNTYAMNWVRQAPGKGLEWVARIRSKYNNYATYYAASVKGRFTISRDDSKNSLYLQMNSLKTEDTAVYYCARHGNFGNSYVSWFAYWGQGTLVTVSS
VL: QTVVTQEPSLTVSPGGTVTLTCRSSTGAVTTSNYANWVQQKPGQAPRGLIGGTNKRAPGTPARFSGSLLGGKAALTLSGVQPEDEAEYYCALWYSNLWVFGGGTKLTVL
notes: IgG4 PAA; CD3 arm with F405L, R409K; also called PSMB359 x CD3B219
B7: PS3B61 (bispecific antibody, human IgG4 S228P, kappa, F234A L235A)
heavy: not shown
light: not shown
VH: EVQLVESGGGLVQPGGSLRLSCAASGFTFNTYAMNWVRQAPGKGLEWVARIRSKYNNYATYYAASVKGRFTISRDDSKNSLYLQMNSLKTEDTAVYYCARHGNFGNSYVSWFAYWGQGTLVTVSS
VL: QTVVTQEPSLTVSPGGTVTLTCRSSTGAVTTSNYANWVQQKPGQAPRGLIGGTNKRAPGTPARFSGSLLGGKAALTLSGVQPEDEAEYYCALWYSNLWVFGGGTKLTVL
notes: IgG4 PAA; CD3 arm with F405L, R409K; also called PSMB345 x CD3B219
B8: PS3B64 (bispecific antibody, human IgG4 S228P, kappa, F234A L235A)
heavy: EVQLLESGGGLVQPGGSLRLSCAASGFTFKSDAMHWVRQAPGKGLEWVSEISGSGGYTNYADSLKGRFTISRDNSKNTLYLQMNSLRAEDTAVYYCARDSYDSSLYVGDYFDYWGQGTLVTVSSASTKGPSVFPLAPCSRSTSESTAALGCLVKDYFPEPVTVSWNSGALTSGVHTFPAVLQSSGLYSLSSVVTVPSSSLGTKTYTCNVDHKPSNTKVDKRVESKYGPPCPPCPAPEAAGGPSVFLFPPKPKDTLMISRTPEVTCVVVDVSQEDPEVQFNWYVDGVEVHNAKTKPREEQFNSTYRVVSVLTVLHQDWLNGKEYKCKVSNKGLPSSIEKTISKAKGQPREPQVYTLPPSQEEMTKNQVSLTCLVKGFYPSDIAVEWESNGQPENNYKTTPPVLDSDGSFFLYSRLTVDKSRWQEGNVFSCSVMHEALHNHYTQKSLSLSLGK
light: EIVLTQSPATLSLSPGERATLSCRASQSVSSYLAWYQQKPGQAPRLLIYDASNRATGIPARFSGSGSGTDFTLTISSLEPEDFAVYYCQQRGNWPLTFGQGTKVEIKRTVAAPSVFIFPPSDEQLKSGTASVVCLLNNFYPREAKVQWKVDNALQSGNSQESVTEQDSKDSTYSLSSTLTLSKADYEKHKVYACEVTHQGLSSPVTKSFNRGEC
VH: EVQLVESGGGLVQPGGSLRLSCAASGFTFNTYAMNWVRQAPGKGLEWVARIRSKYNNYATYYAASVKGRFTISRDDSKNSLYLQMNSLKTEDTAVYYCARHGNFGNSYVSWFAYWGQGTLVTVSS
VL: QTVVTQEPSLTVSPGGTVTLTCRSSTGAVTTSNYANWVQQKPGQAPRGLIGGTNKRAPGTPARFSGSLLGGKAALTLSGVQPEDEAEYYCALWYSNLWVFGGGTKLTVL
notes: IgG4 PAA; CD3 arm with F405L, R409K; also called PSMB349 x CD3B219
B9: PS3B83 (bispecific antibody, human IgG4 S228P, kappa, lambda, F234A L235A)
heavy 1: not shown
light 1: not shown
heavy 2: QVQLQQSGPRLVRPSQTLSLTCAISGDSVFNNNAAWSWIRQSPSRGLEWLGRTYYRSKWLYDYAVSVKSRITVNPDTSRNQFTLQLNSVTPEDTALYYCARGYSSSFDYWGQGTLVTVSSASTKGPSVFPLAPCSRSTSESTAALGCLVKDYFPEPVTVSWNSGALTSGVHTFPAVLQSSGLYSLSSVVTVPSSSLGTKTYTCNVDHKPSNTKVDKRVESKYGPPCPPCPAPEAAGGPSVFLFPPKPKDTLMISRTPEVTCVVVDVSQEDPEVQFNWYVDGVEVHNAKTKPREEQFNSTYRVVSVLTVLHQDWLNGKEYKCKVSNKGLPSSIEKTISKAKGQPREPQVYTLPPSQEEMTKNQVSLTCLVKGFYPSDIAVEWESNGQPENNYKTTPPVLDSDGSFLLYSKLTVDKSRWQEGNVFSCSVMHEALHNHYTQKSLSLSLGK
light 2: QSALTQPASVSGSPGQSITISCTGTSSNIGTYKFVSWYQQHPDKAPKVLLYEVSKRPSGVSSRFSGSKSGNTASLTISGLQAEDQADYHCVSYAGSGTLLFGGGTKLTVLGQPKAAPSVTLFPPSSEELQANKATLVCLISDFYPGAVTVAWKADSSPVKAGVETTTPSKQSNNKYAASSYLSLTPEQWKSHRSYSCQVTHEGSTVEKTVAPTECS
notes: IgG4 PAA; also called PSMB363 x CD3B376
B10: PS3B85 (bispecific antibody, human IgG4 S228P, kappa, lambda, F234A L235A)
heavy 1: not shown
light 1: not shown
heavy 2: QVQLQQSGPRLVRPSQTLSLTCAISGDSVFNNNAAWSWIRQSPSRGLEWLGRTYYRSKWLYDYAVSVKSRITVNPDTSRNQFTLQLNSVTPEDTALYYCARGYSSSFDYWGQGTLVTVSSASTKGPSVFPLAPCSRSTSESTAALGCLVKDYFPEPVTVSWNSGALTSGVHTFPAVLQSSGLYSLSSVVTVPSSSLGTKTYTCNVDHKPSNTKVDKRVESKYGPPCPPCPAPEAAGGPSVFLFPPKPKDTLMISRTPEVTCVVVDVSQEDPEVQFNWYVDGVEVHNAKTKPREEQFNSTYRVVSVLTVLHQDWLNGKEYKCKVSNKGLPSSIEKTISKAKGQPREPQVYTLPPSQEEMTKNQVSLTCLVKGFYPSDIAVEWESNGQPENNYKTTPPVLDSDGSFLLYSKLTVDKSRWQEGNVFSCSVMHEALHNHYTQKSLSLSLGK
light 2: QSALTQPASVSGSPGQSITISCTGTSSNIGTYKFVSWYQQHPDKAPKVLLYEVSKRPSGVSSRFSGSKSGNTASLTISGLQAEDQADYHCVSYAGSGTLLFGGGTKLTVLGQPKAAPSVTLFPPSSEELQANKATLVCLISDFYPGAVTVAWKADSSPVKAGVETTTPSKQSNNKYAASSYLSLTPEQWKSHRSYSCQVTHEGSTVEKTVAPTECS
notes: IgG4 PAA; also called PSMB345 x CD3B376
B11: PS3B86 (bispecific antibody, human IgG4 S228P, kappa, lambda, F234A L235A)
heavy 1: not shown
light 1: not shown
heavy 2: QVQLQQSGPRLVRPSQTLSLTCAISGDSVFNNNAAWSWIRQSPSRGLEWLGRTYYRSKWLYDYAVSVKSRITVNPDTSRNQFTLQLNSVTPEDTALYYCARGYSSSFDYWGQGTLVTVSSASTKGPSVFPLAPCSRSTSESTAALGCLVKDYFPEPVTVSWNSGALTSGVHTFPAVLQSSGLYSLSSVVTVPSSSLGTKTYTCNVDHKPSNTKVDKRVESKYGPPCPPCPAPEAAGGPSVFLFPPKPKDTLMISRTPEVTCVVVDVSQEDPEVQFNWYVDGVEVHNAKTKPREEQFNSTYRVVSVLTVLHQDWLNGKEYKCKVSNKGLPSSIEKTISKAKGQPREPQVYTLPPSQEEMTKNQVSLTCLVKGFYPSDIAVEWESNGQPENNYKTTPPVLDSDGSFLLYSKLTVDKSRWQEGNVFSCSVMHEALHNHYTQKSLSLSLGK
light 2: QSALTQPASVSGSPGQSITISCTGTSSNIGTYKFVSWYQQHPDKAPKVLLYEVSKRPSGVSSRFSGSKSGNTASLTISGLQAEDQADYHCVSYAGSGTLLFGGGTKLTVLGQPKAAPSVTLFPPSSEELQANKATLVCLISDFYPGAVTVAWKADSSPVKAGVETTTPSKQSNNKYAASSYLSLTPEQWKSHRSYSCQVTHEGSTVEKTVAPTECS
notes: IgG4 PAA; also called PSMB346 x CD3B376

These binders were tested against T1, human PSMA on cells (LNCaP) (human, UniProt Q04609 1-750) (assay: flow cytometry cell binding assay on LNCaP cells).
T1 construct: whole, on cells; also called LNCaP cells
T1 sequence (Q04609 whole entry): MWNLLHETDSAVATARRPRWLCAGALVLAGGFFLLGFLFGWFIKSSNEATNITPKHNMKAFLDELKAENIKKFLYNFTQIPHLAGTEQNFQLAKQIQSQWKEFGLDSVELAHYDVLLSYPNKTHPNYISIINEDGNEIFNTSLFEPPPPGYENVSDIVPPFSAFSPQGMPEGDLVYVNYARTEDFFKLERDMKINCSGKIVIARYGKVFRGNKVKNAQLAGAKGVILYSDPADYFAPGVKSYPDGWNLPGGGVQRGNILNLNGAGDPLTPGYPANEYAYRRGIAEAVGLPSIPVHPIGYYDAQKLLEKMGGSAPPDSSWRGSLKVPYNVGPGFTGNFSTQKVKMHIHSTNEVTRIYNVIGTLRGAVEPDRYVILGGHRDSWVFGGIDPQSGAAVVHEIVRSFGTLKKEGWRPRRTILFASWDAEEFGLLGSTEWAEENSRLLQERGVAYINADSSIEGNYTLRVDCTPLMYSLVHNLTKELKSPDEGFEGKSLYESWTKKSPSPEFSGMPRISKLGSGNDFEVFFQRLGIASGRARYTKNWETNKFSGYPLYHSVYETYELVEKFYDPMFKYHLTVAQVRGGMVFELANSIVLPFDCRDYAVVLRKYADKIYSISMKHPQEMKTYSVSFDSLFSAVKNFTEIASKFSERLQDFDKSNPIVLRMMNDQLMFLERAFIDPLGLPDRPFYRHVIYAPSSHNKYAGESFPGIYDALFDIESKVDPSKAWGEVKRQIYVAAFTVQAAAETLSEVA
Method: (§1) PSMA×CD3 bispecific antibodies were tested for binding to PSMA positive cell line, LNCAP, to PSMA negative cell line, PC3. To assess the binding capabilities of the PSMA bispecific antibodies, the cell-binding assay was utilized (described previously). Bispecific antibodies were normalized for protein concentration and then incubated with the same number of cells expressing either human or cyno PSMA. The MFI at each concentration was collected by flow cytometry and plotted as a function of concentration. Data was transformed via log 10 and then plotted. Nonlinear regression of binding curves was done to determine EC50s.

Does B1 bind?
Result: binds

With B2 as the binder, how does the “EC50 (read off the curve)” value read?
Its value is ~2 nM.

Does B3 bind?
Result: binds

Does B4 bind?
Result: binds

Does B5 bind?
Result: binds

How did the “EC50 (read off the curve)” value turn out when B6 was run?
The value was ~8 nM.

Does B7 bind?
Result: binds

Does B8 bind?
Result: binds

Molecular target: T1, human PSMA on cells (LNCaP)
Experiment: flow cytometry cell binding assay on LNCaP cells
Remark: another data set of the same source
Method: as §1

Does B9 bind?
Result: binds

Does B10 bind?
Result: binds

Does B11 bind?
Result: binds
